system: Escherichia coli TOP10; test: shrunken log2 fold change of peptide-encoding DNA abundance (4.5 h post-induction vs induction); higher = less antimicrobial activity (less host growth inhibition); conditions: time post-induction: 4.5 h; library: site-saturation at positions 5, 18, 19, 20
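Note: peptides expressed intracellularly from a pBAD plasmid library in pooled LB shake-flask culture, induced with 0.3% L-arabinose, DNA abundance read by NGS, three biological replicates, DESeq2 with apeglm shrinkage.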

Sequence | shrunken log2 fold change
RRIRHRPPRLPRPRPRPLLFPRP | -0.364
RRIRPRPPRLPRPRPRPSYLPRP | -0.562
RRIRGRPPRLPRPRPRPSKRPRP | 0.231
RRIRIRPPRLPRPRPRPNTNPRP | -0.905
RRIRERPPRLPRPRPRPDENPRP | -0.0287
RRIRIRPPRLPRPRPRPNLCPRP | -0.0543
RRIRCRPPRLPRPRPRPETKPRP | 0.0774
RRIRWRPPRLPRPRPRPCDPPRP | 0.0863
RRIRLRPPRLPRPRPRPNCFPRP | -0.0891
RRIRDRPPRLPRPRPRPEHLPRP | -0.00213
RRIRTRPPRLPRPRPRPGSLPRP | -0.0994
RRIRKRPPRLPRPRPRPCYYPRP | -0.48
RRIRYRPPRLPRPRPRPRSWPRP | -0.0913
RRIRIRPPRLPRPRPRPICPPRP | 0.0188
RRIRVRPPRLPRPRPRPFKCPRP | -0.0453
RRIRARPPRLPRPRPRPQAWPRP | 0.376
RRIRMRPPRLPRPRPRPEEHPRP | 2.85
RRIRGRPPRLPRPRPRPGEVPRP | 1.2
RRIRMRPPRLPRPRPRPHYPPRP | -0.303
RRIRWRPPRLPRPRPRPSGYPRP | 0.141
RRIRRRPPRLPRPRPRPQVNPRP | -0.0663
RRIRLRPPRLPRPRPRPFYPPRP | -0.504

Sequence | shrunken log2 fold change
RRIRKRPPRLPRPRPRPVNPPRP | -0.0659
RRIRPRPPRLPRPRPRPYSDPRP | -0.713
RRIRIRPPRLPRPRPRPLTMPRP | -0.181
RRIRERPPRLPRPRPRPRIHPRP | -0.737
RRIRRRPPRLPRPRPRPCRYPRP | -0.0616
RRIRVRPPRLPRPRPRPGPNPRP | 0.0445
RRIRARPPRLPRPRPRPMNVPRP | -0.163
RRIRFRPPRLPRPRPRPCCCPRP | 0.0783
RRIRCRPPRLPRPRPRPRPYPRP | -0.0927
RRIRDRPPRLPRPRPRPYAVPRP | -0.165
RRIRVRPPRLPRPRPRPMTAPRP | -0.12
RRIRFRPPRLPRPRPRPHIEPRP | -0.0641
RRIRYRPPRLPRPRPRPPMGPRP | -0.239
RRIRNRPPRLPRPRPRPKQMPRP | 0.267
RRIRRRPPRLPRPRPRPFGNPRP | -0.18
RRIRKRPPRLPRPRPRPCTRPRP | -0.103
RRIRQRPPRLPRPRPRPDSMPRP | -0.17
RRIRHRPPRLPRPRPRPGLNPRP | -0.0123
RRIRMRPPRLPRPRPRPPQSPRP | 0.721
RRIRARPPRLPRPRPRPQEQPRP | 0.0884
RRIRSRPPRLPRPRPRPKSHPRP | -0.158
RRIRTRPPRLPRPRPRPFYPPRP | -0.478

Sequence | shrunken log2 fold change
RRIRVRPPRLPRPRPRPHEQPRP | -0.163
RRIRVRPPRLPRPRPRPTWIPRP | 0.216
RRIRYRPPRLPRPRPRPWNEPRP | -0.0429
RRIRDRPPRLPRPRPRPHIWPRP | -0.0717
RRIRPRPPRLPRPRPRPSFWPRP | 0.129
RRIRARPPRLPRPRPRPVTLPRP | -0.121
RRIRQRPPRLPRPRPRPSGNPRP | -0.323
RRIRVRPPRLPRPRPRPFVIPRP | -0.477
RRIRKRPPRLPRPRPRPDKKPRP | -0.117
RRIRNRPPRLPRPRPRPTACPRP | 0.0275
RRIRIRPPRLPRPRPRPVCRPRP | 1.56
RRIRPRPPRLPRPRPRPGDVPRP | 0.145
RRIRWRPPRLPRPRPRPPLTPRP | 0.432
RRIRTRPPRLPRPRPRPTMSPRP | -0.163
RRIRFRPPRLPRPRPRPWNQPRP | 0.0676
RRIRQRPPRLPRPRPRPKYYPRP | -0.746
RRIRWRPPRLPRPRPRPHPFPRP | -0.42
RRIRLRPPRLPRPRPRPPIIPRP | -0.195
RRIRRRPPRLPRPRPRPAGWPRP | 0.593
RRIRVRPPRLPRPRPRPYGPPRP | -0.041
RRIRHRPPRLPRPRPRPKVMPRP | 0.0163
RRIRSRPPRLPRPRPRPIMLPRP | -0.156

Sequence | shrunken log2 fold change
RRIRFRPPRLPRPRPRPTWLPRP | 0.299
RRIRNRPPRLPRPRPRPVHFPRP | 0.0937
RRIRKRPPRLPRPRPRPVSTPRP | -0.102
RRIRERPPRLPRPRPRPPMCPRP | -0.305
RRIRIRPPRLPRPRPRPTDQPRP | -0.51
RRIRIRPPRLPRPRPRPNAFPRP | -0.0665
RRIRRRPPRLPRPRPRPDGDPRP | 0.485
RRIRIRPPRLPRPRPRPMLSPRP | -0.403
RRIRFRPPRLPRPRPRPIESPRP | -0.15
RRIRARPPRLPRPRPRPPTLPRP | 0.503
RRIRQRPPRLPRPRPRPASFPRP | 0.0572
RRIRGRPPRLPRPRPRPSVGPRP | 0.333
RRIRPRPPRLPRPRPRPCKAPRP | -0.00218
RRIRARPPRLPRPRPRPAVSPRP | 0.431
RRIRVRPPRLPRPRPRPGARPRP | 0.198
RRIRQRPPRLPRPRPRPISPPRP | -0.0311
RRIRIRPPRLPRPRPRPYMQPRP | -0.695
RRIRNRPPRLPRPRPRPCEEPRP | -0.0104
RRIRDRPPRLPRPRPRPEIHPRP | 0.597
RRIRYRPPRLPRPRPRPNMRPRP | 0.117
RRIRMRPPRLPRPRPRPFYQPRP | -0.297
RRIRVRPPRLPRPRPRPELQPRP | -0.0355

Sequence | shrunken log2 fold change
RRIRARPPRLPRPRPRPTSEPRP | 0.751
RRIRARPPRLPRPRPRPEVQPRP | 0.76
RRIRWRPPRLPRPRPRPDDAPRP | 0.368
RRIRKRPPRLPRPRPRPICTPRP | -0.0207
RRIRWRPPRLPRPRPRPKDLPRP | -0.0295
RRIRARPPRLPRPRPRPYMLPRP | -0.659
RRIRSRPPRLPRPRPRPVKVPRP | 0.0828
RRIRSRPPRLPRPRPRPDMAPRP | -0.0366
RRIRTRPPRLPRPRPRPPNNPRP | -0.377
RRIRERPPRLPRPRPRPSWCPRP | -0.0728
RRIRNRPPRLPRPRPRPCMVPRP | -0.69
RRIRHRPPRLPRPRPRPVDSPRP | -0.175
RRIRERPPRLPRPRPRPVPNPRP | -0.14
RRIRWRPPRLPRPRPRPWVSPRP | -0.0613
RRIRKRPPRLPRPRPRPNCDPRP | 0.142
RRIRMRPPRLPRPRPRPFCTPRP | -0.0819
RRIRPRPPRLPRPRPRPGIEPRP | -0.00839
RRIRGRPPRLPRPRPRPCIAPRP | 0.797
RRIRARPPRLPRPRPRPLACPRP | 0.695
RRIRTRPPRLPRPRPRPNMCPRP | 0.00985
RRIRPRPPRLPRPRPRPRNVPRP | 0.0758

— the supplement of paper PMC9112550, “Optimization of the antimicrobial peptide Bac7 by deep mutational scanning” (BMC Biology, 2022)
